The text below walks through data of paper PMC4428445 (Frontiers in Molecular Biosciences, 2015).

The assay has as its target T1, Recombinant wild-type human ubiquitin (human, UniProt P0CG48 1-76).
T1 construct: ubiquitin, human, wild type; C-terminal residue G76; 15N labelled in some NMR experiments; In the rows of assays a1, a4 and a5 it is covalently linked by G76 to K117 of m1 (the conjugate is m3); also called free ubiquitin; mono-ubiquitin; source: recombinant, purified by anion exchange followed by gel filtration
The assay can be described thus: NMR titration; 15N ubiquitin (50 μM) titrated with unlabeled JosK117-onlyW87R or its mono-ubiquitinated form to a maximum of 2 equivalents; 20 mM Na phosphate pH 6.5, 2 mM DTT, 25°C. The note with it: both partners purified.

B1: W87R mutant of JosK117-only (domain or fragment, UniProt P54252 1-182, looked up)
chain: MESIFHERQEGSLCAQHCLNNLLQGEYFSPVELSSIAHQLDEEERMRMAEGGVTSEDYRTFLQQPSGNMDDSGFFSIQVISNALRVRGLELILFNSPEYQRLRIDPINERSFICNYKEHWFTVRRLGRQWFNLNSLLTGPELISDTYLALFLAQLQQEGYSIFVVRGDLPDCEADQLLQMIR
notes: ataxin-3, N-terminal Josephin domain, amino acids 1-182; K8, 85, 125, 128 and 166 mutated to arginine, and W87R (site 2); also called JosK117-onlyW87R; JosK117-only W87R; source: recombinant; mutant prepared with QuickChange Site-Directed Mutagenesis kit
As for B1, the binding result is on record as “binds”.
